Assay: soluble fraction after stress (log2 fold change); higher = more stays soluble; pooled small domains, quantitative proteomics
Details: stress: 75 degC
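Further: 20 min heating vs room temperature control held 20 min.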

Sequence	soluble fraction (log2)
HMIDTLEYIISEESKGLRADQAITMVNGEFSRSLIQKWIKKGSILVNGKKIKPRDILNLNDKVTINPEEN	-0.24
HMRTGSSVLVGLVAPVRLGATGAPKVFADGALWEARSAVPLNDGQLVEITGTDGLTVLVKPSA	-0.122
HMGRKRLADYGLNDTEQKIVRKIADGLSNREIAQALYLSEGTVKNYITDILGKLELRDRTQIAIFYLREIG	-0.941
HMDRWTPLIVAVLIEGSHRFGELRSAIGGITPKVLTETLRSMERDGLVTRDQVPGVPPRVDYALTPLG	-0.462
HMSLPDREVVLETSSDSYYHFKTDHFQRQITYSAVRNAPVRLVTISAERAFEVISLNRRGERPEHLE	-3.24
HMQNKRQEQLLALLAERRDYMTSRQLAEILQVSDRTIRSDVEAINRRSSPPPIESNVRQGYRLNPEA	-0.142
HMVTLPLLKRGHTGLPVKALQTLLVLRGMSVDVDGSFGEKTESAVRTFQTAAKILSDGEVGKDTWKALI	-1.56
HMDFGPDSAAPLADGSAPEGFDVKGNADSMLYHEPDGRWYDATVAEVWFRTAEAAQAAGFTKAGS	-0.119
HMIQRLNVNTEVLSTYIRNSNTPIEYLRQKLPNIDKFLKGELEPTFNQVYALSKLINIPTGLLLLKEPIS	-1.86
HMKYSQAMIAQIIKHFHLPNNTVVTGEDVDAILLRSVDGGDGIYGGDVVSIWKYYKKQNDIQEIVT	-0.764
HMDFYIVLGVDRAASVSDVKRAYRRLARKYHPDINPGDREAEAFFLRVTEAYETLIDPDRRQDYDVNG	-1.06
HMANWRVGQTINALVSDRMPSGGLLLTVGRQSFVTTRDIPVQPGARIMLEVQQVEPKLVLRLVSA	-1.8
HMISIKEAVFPFSRFPGVDTLLGPEMKSTGEVMGLADNFGHAYAKSQIASGSKLPESGTLFVSVKNSD	-0.467
HMFMLQAKRVPVSELENFKGIVAEDVVSQSRALILPRGSNLSWLSSSAMQNLSTRLALEGVESISIYL	-2.68
HMIEMGNRIRTLRKRRVGSQSEFAEKLDVSVVTISRIENGMTKIDAELLIKMSEVLQVPVNIILGM	-3.29
HMGKAPREVQVGELLRVPALNAEGEVLRRDGESVELSIQGKKLRLPLAQLEAFSPRRFARRGEGKVRGRIE	0.591
HMFENPRALLEMMISLGNEQGLINMARDIVSAGEFRRLELAAGGDRRKLARMLIDHLVEVAPRLP	-0.915
HMEGVSNLIVSVTRVKVTVDLSQAKVYLSIFPSEQAAFYLNALQQNRFQLKHDLSQLLKNQLRRIPTLQF	0.296
HMRKGDDRLRAQVDEYISKQGNNTFNYKQVAHAINATSPISQRAVALYLAELAFDGDLLETAPGRYKSPSR	-0.0636
HMVSPLEKSQSFGSFEISREFARTLGLTSARNWENWAASDSRPINIPYSPNVFYKNKGWIDWSDWLGTE	-0.279
HMGHKTLTVELQEKIENLPQTLDKYNLTLGNNKMSVDYTYSVKEKQTGITNLLQDLKEHKFDIVYLVGQDN	0.343
HMSADDLVSRTQAIVAELKDLEGPLLPILHSVQEAFGHVPDEVKPVIAEALNLSRAEVHGVVSFYHDFRAH	-0.126
HMFDPAKQMQRIRKYAGMNRKEFSEWLNIPYRTMTDWELGNRTMPVYLLELIVYKVNHEIANA	0.588
HMQNGNYVVQRQDSLWSIAARISGQTHQPIGEVMNHIKALNEHAFVGGNVNRLRTGTNLNLG	-0.224
HMVKLSATVKELLDFVIAKKTVTSSNVSKHFDISAQNASGRLKKLHATGLVLGQKEVAESGGLEFVYRS	-0.132
HMELPVNSIRVPDVVGLSLREAMQAMTDAGVPWQSVQAKGVGFVSRQSPEAGTVTQLRRVRLELKLF	-2.8

Sequence	soluble fraction (log2)
HMARGLRPVPSVFGLDVRQATRTLYAAGFQVSIARGSDVRTRPAAGTLLRVGSTVQLEMPRMESA	-2.2
HMNIQGIFGRNLKQKRLEKGMTQEQLAEKAGVSTDTVKRYESGKYDGIRLDMAWYMANALDTPLQALLPP	0.598
HMGGLAVQLVHAMTDQIRSGRLKAGDKLPTEAAIMKDFGVSRTVVREAISRLQASGWVDTRHGIGTFVLHQ	-2.1
HMAIEGIFEKYQRRSDQLIPILQDVQKEFGYIAPESVRHISRYLRISENQIFGVSSFYAQFRFT	-0.228
HMDIEELLSRSTDRLSRQTEIRRLLADAQGRPNISSLARRFKVARRTVIRDLQELIRRGEVPPEIYPK	-1.1
HMGAAAQLLHAVVLRVPAEDTMKFVSETPELRRYLGAPLGPTAALVRPGQEQELAAALQAHGILVEFDE	-0.45
HMKQIEEIIARYTNENTPLMMILSDVQREYGYIPLDVQELISEKTGIPVAEIYGVVTFYSFFSL	-0.676
HMKVTGSVQKKKGYYYIVVRLPTKNGTQYEQKQKWFNTKLKATPRNKTAAQVILAEKLTEYGGIV	-3.04
HMFDDEELDRFAGVPADAYLPADEDEFREVFYTMRPGEVVEWVRSLELRHIEIPNGIKDEIFMMIR	-3.97
HMPYSAAVTFLDDAKQPMVNYNYRLIAENGIEVSGITDEFGKTQPIQTDQREKVDLYIADLPN	0.693
HMTPVYLNARQKQILAFLKREEPAKVGDIAHALKTISINTLKKDLLYLRQKNLIESHGVLKGTIYTVK	-1.6
HMTIDTSNDLLNQITEATSKGPISILELKDQLNVNASDIEGELRTLIDQHLVFLKDGMLQVIPFD	0.797
HMHITSFTIKQADQIVGTTPVREQAVGAAKARAQQTGTPVSVIAYLDTGEEREVIIHPDGTN	0.479
HMWNGIVDAGKARQHLMNLSQLGVGRRAVAAASDVAETVLMDIRSGTKTRIRARTERQILAVTPEMA	-2.42
HMVESLTDRELQILSLAAKGYTNKAIAVQLGISDRTVQNHLANTFQKLNAESRTEAVMRAVSLGLISA	-0.542
HMDKMIFFKNKENNDDNQLVKIGALLIHAAKIDEDFSQEEENIIKQTLINFGAGNKNINEIIEKAKKME	0.0233
HMEQQSIYLENRERMTINQVIDVDAFDEETLWANLKEGAVEISGSGLHIEKLDLAEGVLIVSGIIRAFAYV	-0.856
HMEIELHNLALNIKEFRKKNKLSQAELAEKLGVARTTIGYYERAEVEPNIYTLVQLSKLMNRSIDSLLGL	-2.64
HMSNETLFEFFEKNISQLTPTLVDNINRSLAVHSKKNVKLAIMIAAKSNVRNWNYISAILNRWEKE	-2.4
HMNAVDLLSPQEQRIFELIGEGMSNRQIADVMYLAEKTVKNYVSNVLMKLGMERRTEAAALAARLDERQK	-0.179
HMATVPNVVGLSEEKAKSRLANNGLNVSVTTEEVSDKSKDGIVSSQTSEGDTVKQGATITITVGKYVEK	0.111
HMEEFGRRLKERMIDKNMTEAELAQKTELWSSILTSYLKGERFPGYYTLLRIAEALDVSIDFLLGLRDEPE	-2.72
HMEVSTDADFEAVGIRAELIPILQKLGFTTVAQLKEVKATKLFNDIPGMRKKLKLDAVQNPTLQEIEGWLK	-0.0412
HMHIELNDTQKRILNFLSDDPNLSAVRLAEQLGISSRNVEKNIKKLKEYGILIRHGSPKNGYWEIVV	0.0385
HMEHDYGLSGREREVLELMVQGLVKKEIADRLALSYHTVDNHLRSIYAKLQVHTRGGAVAKALSEHLVPP	-0.0631
HMKRDNETRRRIVAAAEELFRAKGLDGVNMRELAEMAGVNKGLLHYYFKTKQALFREILVGQMAL	-1.31

Sequence	soluble fraction (log2)
HMSKLIDQELINFFKNQIESKSFRYGVSIEDSYEEIKSNQIKFYGEQEDKLKAIDNAFIELKRERAGIR	-0.168
HMGVGIAEAMKHVADEDYGDLSSEFQRIFSAVDGGSTLGDAVRAQMRATSSAGLRRTLSVLAMSVE	0.553
HMNEIESFSNTKNPFSLTFKTSKDSSYKVEASSNLKKWTTLSQIKGTGNPITFTESRRILFRKQYYRVTLS	-0.176
HMEQMSLISKKKGERIDKFLGENLGDLSRSYIQKLLKDGLILVNGKKVKANYKLNEGDQIDVEVPDP	0.327
HMSKSPELMEKIKEFAEGYFRENGETPSNKTIAGAMGMGRSTVYYYLVDMAQRGMISYENGVISTEKIRKL	-1.4
HMNKIDVVEVDMSKPYEDMTVTELQNVILGKLASNGPVTDQMKKDVAENIYHDSLVNWAKSF	0.883
HMLLNTSQLKELYNRYDKKNSSLISIPFSAISDEPLKFYKWYAALFQIELNVKAFADVDSKQIIIYKGTK	-3.37
HMDITTIIADVPGPKTQIKVDIKNTSLHIFGGMNFKKEIDIGDNKEIINIKYINGTLTVKLKT	0.231
HMRDLITYVVQINGKLRGKLEVAPDTDPEELKALALEVENVKRSLEGWVVKKVIVVPGKMVSIAAG	-1.77
HMIPSEQYNTALTEIGLSTRAHNSLRRAGIMTLGQLIEKTRDGLPPLPGFGDKSQVEVQDLLTGLGYPI	-0.187
HMPEAITLRDLKTYSKQAASGYLDDHQLVLVEKEAHSEDVPEGQVIKQKPGAGASVKPGDKVEVTFSLGPE	0.0463
HMADEDTILALAKEILASWPDKVEAYKNGNKGMLGLFMGELMKKSGGKANPKSASALIQKLLE	-0.13
HMAIDVQELARTRLRSLRTTLGYSLDELAARTHLSPSTISRLETGKRSLSLDVVVPLAQALHVSLDVLFEA	-2.67
HMVLSPAQVRRALMVSGLFTEARVARQLGVPMDLKQILRIILRNTPPQSAMARELESAIDEIESRNAMRD	-1.7
HMSDKTSLTDDDKALINSMLPDYDKYPSVAKLQAVEIAKSSSKMATLLMLDERYNETVSEALE	0.152
HMGGQEEALNRLVLRELLGTLEKKERDLIVRRYFYDQTQTKIAEALGISQVQVSRMEKRILKKMREGF	-0.98
HMDLVIALNSRIRVIREPFFGKLGTVIDLPHKLHKMESGTMTRVAKIKFDDRTEEIIPRTNLEVILS	-3.54
HMLFSEKLKQAMQDLHLNQIQVVGLTGKSKGSISQYISGKQVPSEATQRDIAISLGLEENYFSKK	0.701
HMTNSTGWSKSGGTQVTIREGETIYNLSRRYGVPAKSIMEANGIADATAVRAGQRISIPTYSY	-0.0378
HMADQVVGQLGMVTQRIDNLQQTGRVSANGLDWAARSENGQPIPQGMPVEVLRIEGVKLIVRPVN	-0.114
HMDSSSYSAKVGTLIQETRQARGMTQAQLAQALGTSQSAINRIEKGGQNISLDMLNRISEVLSSQIVTLNP	-0.0411
HMVITPESVKEQVLAIISKSPAQGFNYKQISKRLNINDPSERKMVSDILRELSESGTIEEINKGKYRAKV	0.186
HMKLELSNDFYNKIRLARKENGLTQEDLAEKLNMKVGVIQKIENGVRQTDSNLMKISKFLGVEIYVE	-1.98
HMNNGYSINEIAKLMKMTLKVVRRYVASGELKTTKTNNTYSISEEAFNEFKKYIEEGGDAKHAQEVADTFK	-1.09

Source: the domain aggregation screens of Martell et al. (2025)
